Assay results as given in the supplement of paper PMC10126150.
± gives the standard deviation of the averaged measurements.

System: ATP
Assay: switch fluorescence ratio, 500 uM ATP over buffer (Cy3 cluster intensity, sum of 5 cycles each) (fold (ratio)); higher = stronger signal-on switching upon ATP binding; sequences stand for … in TCGTCGGCAGCGTCAGATGTGTATAAGAGACAGTTTTTTTTTTTTTTTTTTTTTTTTT…TC
Conditions: aptamer strand: ATP DNA aptamer (quencher-CACCTGGGGGAGTATTGCGGAGGAAGG + anchor), 100 nM annealed; ATP concentration: 500 uM
How it was run: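 The quencher-labelled ATP aptamer, at 100 nM, was annealed to Cy3-labelled switching-strand clusters on a modified Illumina MiSeq flow-cell. The clusters were imaged in selection buffer, then after 15 min with 500 uM ATP at 22 °C, and this buffer/ATP cycle ran five times with NaOH stripping and re-annealing between runs. Per-cluster fluorescence ratios, summed target-cycle over summed buffer-cycle Cy3 intensity, were averaged per switch-domain sequence. Clusters outside 100-1000 RFU were excluded.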
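Further: ATP exposure 15 min at 22 °C before imaging.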

Sequence	switch fluorescence ratio
TTCGTACAT	1.13 ± 0.22
TCTTAGGGAT	1 ± 0.052
AATGTGTCA	1.01 ± 0.011
TCGCTGAAGC	1.02 ± 0.013
AGATTTTTAT	0.983 ± 0.012
TTCAAGGGTG	1.11 ± 0.024
TTGTGTTGTA	1 ± 0.042
TTTTGTCAGG	0.993 ± 0.0079
CATACGGGGT	1.01 ± 0.032
TCTTGATTTT	1 ± 0.011
AGGCCACTGA	1.034 ± 0.0011
TACCGTGGGG	1.05 ± 0.038
ATGGTCGATG	0.965 ± 0.02
GACTCAGGGG	1.39 ± 0.56
CGAGCATTGT	1.16 ± 0.031
GTGGGGCCGC	0.979 ± 0.036
GATGGTTTGT	0.988 ± 0.039
GCTTGTAGTT	0.9865 ± 0.0072
AAAAATTCCG	1.045 ± 0.0036
GGACTGGAAG	1.19 ± 0.051
CACATTATGA	1.04 ± 0.014
GAATTAAGTT	1.01 ± 0.033
TTTGAGAATC	0.977 ± 0.017
CTAAAGGAAG	1.01 ± 0.029
TTGGGGGGCC	1.01 ± 0.031

Sequence	switch fluorescence ratio
CTATGGGGTT	0.977 ± 0.011
TTTCGTACGG	1.03 ± 0.087
TTAAGGCGGG	1 ± 0.05
CGGGTCTAGC	1.01 ± 0.021
GGGTAAGGGG	1.05 ± 0.098
TGGGCTGGGG	1.04 ± 0.023
CGTAAAGGGA	0.987 ± 0.013
GATCTGTGGA	0.95 ± 0.052
GTAAATGGGG	0.975 ± 0.011
TTATTCGGCT	1.08 ± 0.05
GGGCAGCGCA	0.99057 ± 0.00048
CGGATCGATT	0.9907 ± 0.0018
GTAAACGGTA	1.08 ± 0.064
AAGCTGTTTC	1.009 ± 0.0061
GCTGTAGTTG	0.993 ± 0.019
GGTGCTAGAA	0.9789 ± 0.0083
TATTTCGATA	1.029 ± 0.0047
CTTTACGTCG	0.982 ± 0.016
ACTTAGGTAA	1.01 ± 0.024
GAAATAAAAT	1 ± 0.024
TAATGATGAG	0.987 ± 0.028
AGCTTTACGG	1.04 ± 0.019
ATGCAGGTGT	1.23 ± 0.014
TCGGAGGAAG	1.02 ± 0.012
CTCGTGGTTT	0.981 ± 0.024

Sequence	switch fluorescence ratio
CCCCCGGGGG	1.91 ± 0.15
ATATGAGTGC	0.951 ± 0.07
CGGAAGGGCC	0.995 ± 0.03
TTTACTAGCA	1.04 ± 0.11
TATGCTAGGT	0.983 ± 0.012
CCGTGCAGTA	3.14 ± 1.2
CGGGAATCGT	1 ± 0.05
TGGGCCATGT	0.9791 ± 0.0065
AGAGTGGTGT	1 ± 0.024
GGCAGGGACT	1 ± 0.033
TTCGTGTTTT	1.04 ± 0.059
AGAATCGGCG	1.03 ± 0.0081
CAAATAAAGG	1.01 ± 0.025
CCGTGTTCTA	1.03 ± 0.063
TTTTAGGCTG	0.961 ± 0.027
GGGATATGTT	0.9921 ± 0.0071
CTTTTACCGG	1.04 ± 0.013
ATGGTAGCCG	0.981 ± 0.012
CGGTAGAGGG	0.982 ± 0.037
TCCGGGAAAT	2.88 ± 0.66
ATTGAATGGC	1.04 ± 0.068
TCAAACAGCG	0.9861 ± 0.00055
GGTGATTGAC	1.18 ± 0.3
ATAGGAACGT	1.08 ± 0.1
AGACGGCGGG	0.996 ± 0.012

Sequence	switch fluorescence ratio
TGTGGCTTAA	0.9668 ± 0.0021
GTTGAAGGGA	0.983 ± 0.018
GGGTTTCACG	0.983 ± 0.023
TTTTTATTA	1.001 ± 0.0052
CAAACGTGGG	0.98611 ± 0.00012
GACTGTTATG	0.989 ± 0.024
GAGTTCGCGG	1.034 ± 0.01
TCAGTGAGTA	0.98 ± 0.019
ACCGGCTGCG	1.08 ± 0.08
TTTGGGGTAT	0.995 ± 0.028
AGAGTGACGT	0.9848 ± 0.0018
TTTACGTCGG	1.02 ± 0.034
GTCGATTGGG	1.001 ± 0.0012
GCCGGGGGTG	1.04 ± 0.023
GCGTTGTGTG	1.02 ± 0.027
TTGAGGGATG	0.992 ± 0.013
AATGTTGCGT	0.99 ± 0.028
GGATGGGATA	1 ± 0.016
TGGGGGTTCT	1.02 ± 0.057
GGTTGAATTA	0.979 ± 0.051
CGCTGGGGGA	1.055 ± 0.0022
GGGGCGGTGG	1.036 ± 0.0062
TCGGTTTGCG	1.01 ± 0.022
AAGATTTTTC	0.992 ± 0.013
TAGGGTCTGT	0.999 ± 0.022
